{
  "source": "the RNAGym collection of RNA variant scans (doi:10.1093/nar/gkz1192)",
  "parents": {"B1": {"name": "CPEB3 Ribozyme (parent)", "chain": "UAACAGGGGGCCACAGCAGAAGCGUUCACGUCGCAGCCCCUGUCAGAUUCUGGUGAAUCUGCGAAUUCUGCUGUAUAUCUC"}},
  "data": [
    {"variants_of": "B1", "assay": "self-cleavage, relative activity (ratio to wild type); higher = more cleavage; in vitro, sequencing", "summary_of_the_method": "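For each CPEB3 ribozyme variant, relative activity is its cleaved/total read fraction divided by the unmutated ribozyme's. Barcoded error-prone PCR libraries were transcribed by T7 RNA polymerase (5 hours, 37°C) and held in DNase I for 15 min before an EDTA stop, with cleavage occurring throughout. Template-switching reverse transcription and Illumina sequencing were used to read the RNAs. A 5-read minimum applied, and results are the mean of three batches.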", "values": [
      {"variant": "G33C U48C", "self-cleavage": 0.44},
      {"variant": "G33U A57G", "self-cleavage": 0.28},
      {"variant": "A35C U43A", "self-cleavage": 1.06},
      {"variant": "A35C U43C", "self-cleavage": 0.35},
      {"variant": "G33U A64G", "self-cleavage": 0.12},
      {"variant": "G33A G42U", "self-cleavage": 0.39},
      {"variant": "G33A U67A", "self-cleavage": 0.15},
      {"variant": "G33A U67C", "self-cleavage": 0.22},
      {"variant": "C34G U78C", "self-cleavage": 0.22},
      {"variant": "C34G U78A", "self-cleavage": 0.26},
      {"variant": "G33C A56U", "self-cleavage": 0.14},
      {"variant": "G33C A56G", "self-cleavage": 0.12},
      {"variant": "C34U A56G", "self-cleavage": 0.48},
      {"variant": "C34U A56U", "self-cleavage": 0.34},
      {"variant": "G33C U76C", "self-cleavage": 0.12},
      {"variant": "G33A G73A", "self-cleavage": 0.51},
      {"variant": "C34U A35U", "self-cleavage": 0.27},
      {"variant": "C34U A35G", "self-cleavage": 0.36},
      {"variant": "C34U U76C", "self-cleavage": 0.35},
      {"variant": "C34U U76A", "self-cleavage": 0.5},
      {"variant": "G33C U51A", "self-cleavage": 0.15},
      {"variant": "G33C U51C", "self-cleavage": 0.44},
      {"variant": "C34U A45G", "self-cleavage": 0.34},
      {"variant": "C34U A45C", "self-cleavage": 0.17},
      {"variant": "G33U C38U", "self-cleavage": 0.36},
      {"variant": "G33U C38A", "self-cleavage": 0.2},
      {"variant": "G33U U76C", "self-cleavage": 0.32},
      {"variant": "G33A U41A", "self-cleavage": 0.41},
      {"variant": "G33A U41C", "self-cleavage": 0.39},
      {"variant": "G33U U48C", "self-cleavage": 0.08},
      {"variant": "G33U U43C", "self-cleavage": 0.48},
      {"variant": "G33A U54C", "self-cleavage": 0.15},
      {"variant": "G33A U54A", "self-cleavage": 0.18},
      {"variant": "C34G A45C", "self-cleavage": 0.19},
      {"variant": "C34G U58A", "self-cleavage": 0.11},
      {"variant": "C34G U58C", "self-cleavage": 0.15},
      {"variant": "A35C C50A", "self-cleavage": 0.92},
      {"variant": "G33U U67C", "self-cleavage": 0.16},
      {"variant": "C34U U74A", "self-cleavage": 0.52},
      {"variant": "C34U U74C", "self-cleavage": 0.84},
      {"variant": "C34U U69C", "self-cleavage": 0.35},
      {"variant": "C34U U69A", "self-cleavage": 0.13},
      {"variant": "G33C U72C", "self-cleavage": 0.19},
      {"variant": "G33C U72A", "self-cleavage": 0.09},
      {"variant": "G33A G61A", "self-cleavage": 0.14},
      {"variant": "C34G U76G", "self-cleavage": 0.32},
      {"variant": "C34G C68A", "self-cleavage": 0.1},
      {"variant": "C34G C68U", "self-cleavage": 0.15},
      {"variant": "A35G C40G", "self-cleavage": 0.66},
      {"variant": "A35G C40A", "self-cleavage": 0.55},
      {"variant": "A35G C40U", "self-cleavage": 1.23},
      {"variant": "G33U U69C", "self-cleavage": 0.2},
      {"variant": "G33U G36U", "self-cleavage": 0.13},
      {"variant": "G33C C79U", "self-cleavage": 0.19},
      {"variant": "C34A U78C", "self-cleavage": 0.32},
      {"variant": "C34A U78A", "self-cleavage": 0.16},
      {"variant": "A35C U74C", "self-cleavage": 1.17},
      {"variant": "C34U C68U", "self-cleavage": 0.3},
      {"variant": "C34A A45G", "self-cleavage": 0.37},
      {"variant": "C34A A45C", "self-cleavage": 0.19},
      {"variant": "C34A U74G", "self-cleavage": 0.29},
      {"variant": "C34U C44A", "self-cleavage": 0.38},
      {"variant": "A35C A45C", "self-cleavage": 0.31},
      {"variant": "A35C A45U", "self-cleavage": 0.24},
      {"variant": "A35C A47G", "self-cleavage": 0.81},
      {"variant": "A35C A47U", "self-cleavage": 0.63},
      {"variant": "C34G A75G", "self-cleavage": 0.15},
      {"variant": "G33U U41A", "self-cleavage": 0.18},
      {"variant": "G33U U41C", "self-cleavage": 0.25},
      {"variant": "A35G A77U", "self-cleavage": 1.28},
      {"variant": "A35G A77C", "self-cleavage": 1.27},
      {"variant": "A35G A77G", "self-cleavage": 1.39},
      {"variant": "C34U U43C", "self-cleavage": 0.22},
      {"variant": "C34U U43A", "self-cleavage": 0.51},
      {"variant": "C34A U54A", "self-cleavage": 0.17},
      {"variant": "G33C A64G", "self-cleavage": 0.18},
      {"variant": "C34U U80C", "self-cleavage": 0.58},
      {"variant": "C34U U80G", "self-cleavage": 0.27},
      {"variant": "C34U U80A", "self-cleavage": 0.51},
      {"variant": "A35G", "self-cleavage": 1.27},
      {"variant": "A35C", "self-cleavage": 0.85},
      {"variant": "A35G C50U", "self-cleavage": 1.35},
      {"variant": "A35G C50A", "self-cleavage": 1.1},
      {"variant": "A35C C81U", "self-cleavage": 0.93},
      {"variant": "G33C C62U", "self-cleavage": 0.14},
      {"variant": "C34G U48C", "self-cleavage": 0.21},
      {"variant": "G33A U58C", "self-cleavage": 0.08},
      {"variant": "G33U A35U", "self-cleavage": 0.15},
      {"variant": "C34A A35G", "self-cleavage": 1.07},
      {"variant": "C34A G46U", "self-cleavage": 0.15},
      {"variant": "G33A U49A", "self-cleavage": 0.29},
      {"variant": "G33A U49C", "self-cleavage": 0.28},
      {"variant": "G33C U80C", "self-cleavage": 0.27},
      {"variant": "G33U U49G", "self-cleavage": 0.2},
      {"variant": "G33U U49C", "self-cleavage": 0.15},
      {"variant": "C34G U60C", "self-cleavage": 0.15},
      {"variant": "G33U U72G", "self-cleavage": 0.28},
      {"variant": "G33U U72C", "self-cleavage": 0.19},
      {"variant": "G33A U51C", "self-cleavage": 0.37},
      {"variant": "G33A U51A", "self-cleavage": 0.26},
      {"variant": "G33A U51G", "self-cleavage": 0.19},
      {"variant": "A35G C79A", "self-cleavage": 1.3},
      {"variant": "G33A U43G", "self-cleavage": 0.34},
      {"variant": "G33A U43A", "self-cleavage": 0.32},
      {"variant": "G33A U43C", "self-cleavage": 0.29},
      {"variant": "G33A U69C", "self-cleavage": 0.27},
      {"variant": "G33A U69G", "self-cleavage": 0.16},
      {"variant": "A35G A75C", "self-cleavage": 1.25},
      {"variant": "A35G A75G", "self-cleavage": 1.31},
      {"variant": "A35G A75U", "self-cleavage": 1.27},
      {"variant": "A35C U69C", "self-cleavage": 0.46},
      {"variant": "A35C U69A", "self-cleavage": 0.53},
      {"variant": "A35C U69G", "self-cleavage": 0.62},
      {"variant": "C34A A47G", "self-cleavage": 0.31},
      {"variant": "C34G C71U", "self-cleavage": 0.52},
      {"variant": "A35G A64G", "self-cleavage": 1.28},
      {"variant": "A35G A64U", "self-cleavage": 1.12},
      {"variant": "A35G A64C", "self-cleavage": 0.98},
      {"variant": "C34G U49C", "self-cleavage": 0.07},
      {"variant": "C34G U49A", "self-cleavage": 0.24},
      {"variant": "A35C C39A", "self-cleavage": 0.31},
      {"variant": "A35C U48C", "self-cleavage": 0.47},
      {"variant": "A35C U48A", "self-cleavage": 0.45},
      {"variant": "G33A U78C", "self-cleavage": 0.2},
      {"variant": "G33A U78A", "self-cleavage": 0.04},
      {"variant": "G33C C40A", "self-cleavage": 0.15},
      {"variant": "C34G A35G", "self-cleavage": 0.86},
      {"variant": "G33U A65G", "self-cleavage": 0.43},
      {"variant": "G33U A65U", "self-cleavage": 0.13},
      {"variant": "G33A U74A", "self-cleavage": 0.33},
      {"variant": "G33A U74C", "self-cleavage": 0.57},
      {"variant": "C34U U41G", "self-cleavage": 0.12},
      {"variant": "C34U U41C", "self-cleavage": 0.5},
      {"variant": "C34U U41A", "self-cleavage": 0.4},
      {"variant": "A35C G61A", "self-cleavage": 0.41},
      {"variant": "G33A U60A", "self-cleavage": 0.15},
      {"variant": "G33A U60C", "self-cleavage": 0.24},
      {"variant": "G33U A75U", "self-cleavage": 0.81},
      {"variant": "A35C A56U", "self-cleavage": 0.53},
      {"variant": "A35C A56G", "self-cleavage": 0.77},
      {"variant": "C34A A64G", "self-cleavage": 0.14},
      {"variant": "C34G A56G", "self-cleavage": 0.18},
      {"variant": "G33C C38U", "self-cleavage": 0.12},
      {"variant": "C34U U54A", "self-cleavage": 0.24},
      {"variant": "C34U U54C", "self-cleavage": 0.44},
      {"variant": "G33C A57G", "self-cleavage": 0.13},
      {"variant": "G33A G70C", "self-cleavage": 0.26},
      {"variant": "G33A G70U", "self-cleavage": 0.71},
      {"variant": "G33C A47G", "self-cleavage": 0.08},
      {"variant": "G33U A56U", "self-cleavage": 0.42},
      {"variant": "G33U A56G", "self-cleavage": 0.29},
      {"variant": "A35C U72C", "self-cleavage": 1.14},
      {"variant": "A35C U72G", "self-cleavage": 0.43},
      {"variant": "C34A U67A", "self-cleavage": 0.33},
      {"variant": "C34A U67C", "self-cleavage": 0.29},
      {"variant": "C34U U49C", "self-cleavage": 0.16},
      {"variant": "C34U A65G", "self-cleavage": 0.34},
      {"variant": "C34G U67C", "self-cleavage": 0.13},
      {"variant": "G33A G52C", "self-cleavage": 0.12},
      {"variant": "G33A G52A", "self-cleavage": 0.3},
      {"variant": "G33A U72G", "self-cleavage": 0.24},
      {"variant": "G33A U72C", "self-cleavage": 0.26},
      {"variant": "G33A U72A", "self-cleavage": 0.23},
      {"variant": "G33C A35U", "self-cleavage": 0.14},
      {"variant": "G33C A35G", "self-cleavage": 0.22},
      {"variant": "A35C U80A", "self-cleavage": 0.89},
      {"variant": "A35C U80C", "self-cleavage": 0.84}
    ]}
  ]
}
